Data as given in patent US20040010124A1 (MacroGenics, published 2004).

target: T1, soluble form of human CD16A (sCD16A) (human, UniProt P08637 17-203); assay: ELISA, sCD16A captured by mAb LNK-16
T1 construct: CD16A gene truncated just prior to the transmembrane region, expressed in HEK-293; The last seven residues come from vector pCDNA3.1; also called sFcRIIIa
Protocol: The plate was washed and dilutions of recombinant antibodies starting at 0.5 μg/ml in PBS-T-BSA were then added and incubated for 1 hr at room temp. […] After stopping color development using dilute sulfuric acid, the plate was read at 450 nm.

T1 sequence (P08637 other isoform, or with tags, fused parts or gaps limits assumed): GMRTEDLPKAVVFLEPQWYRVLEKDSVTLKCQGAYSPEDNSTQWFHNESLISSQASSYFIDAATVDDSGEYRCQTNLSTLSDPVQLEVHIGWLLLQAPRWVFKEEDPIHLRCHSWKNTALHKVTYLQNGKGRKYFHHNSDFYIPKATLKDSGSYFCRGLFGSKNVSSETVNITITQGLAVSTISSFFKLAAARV

Binder	binding result
hu3G8VH-1/hu3G8VL-1 (antibody, human IgG1, kappa, HEK-293; also called Hu3G8-1.1) heavy: not shown light: DIVMTQSPDSLAVSLGERATINCKASQSVDFDGDSFMNWYQQKPGQPPKLLIYTTSNLESGVPDRFSGSGSGTDFTLTISSLQAEDVAVYYCQQSNEDPYTFGQGTKLEIKRTVAAPSVFIFPPSDEQLKSGTASVVCLLNNFYPREAKVQWKVDNALQSGNSQESVTEQDSKDSTYSLSSTLTLSKADYEKHKVYACEVTHQGLSSPVTKSFNRGEC	binds
hu3G8VH-3/hu3G8VL-1 (antibody, V domains shown, Human Cγ1/Cκ constant regions; HEK-293) VH: QVTLRESGPALVKPTQTLTLTCTFSGFSLRTSGMGVGWIRQPPGKALEWLAHIWWDDDKRYNPALKSRLTISKDTSKNQVVLTMTNMDPVDTATYYCARINPAWFAYWGQGTLVTVSS VL: DIVMTQSPDSLAVSLGERATINCKASQSVDFDGDSFMNWYQQKPGQPPKLLIYTTSNLESGVPDRFSGSGSGTDFTLTISSLQAEDVAVYYCQQSNEDPYTFGQGTKLEIK	binds
hu3G8VH-4/hu3G8VL-1 (antibody, V domains shown, Human Cγ1/Cκ constant regions; HEK-293) VH: QVTLRESGPALVKPTQTLTLTCTFSGFSLSTSGMGVGWIRQPPGKALEWLAHIWWDDDKRYNPALKSRLTISKDTSKNQVVLTMTNMDPVDTATYYCAQINPAWFDYWGQGTLVTVSS VL: DIVMTQSPDSLAVSLGERATINCKASQSVDFDGDSFMNWYQQKPGQPPKLLIYTTSNLESGVPDRFSGSGSGTDFTLTISSLQAEDVAVYYCQQSNEDPYTFGQGTKLEIK	binds
hu3G8VH-37/hu3G8VL-1 (antibody, V domains shown, Human Cγ1/Cκ constant regions; HEK-293) VH: QITLKESGPTLVKPTQTLTLTCTFSGFSLSTSGVGVGWIRQPPGKALEWLALIWWDDDKRYSPSLKSRLTISKDTSKNQVVLTMTNMDPVDTATYYCAKINPAYFAYWGQGTLVTVSS VL: DIVMTQSPDSLAVSLGERATINCKASQSVDFDGDSFMNWYQQKPGQPPKLLIYTTSNLESGVPDRFSGSGSGTDFTLTISSLQAEDVAVYYCQQSNEDPYTFGQGTKLEIK	binds
hu3G8VH-5/hu3G8VL-1 (antibody, V domains shown, Human Cγ1/Cκ constant regions; HEK-293; also called Hu3G8-5.1; h3G8 5.1) VH: QVTLRESGPALVKPTQTLTLTCTFSGFSLSTSGMGVGWIRQPPGKALEWLAHIWWDDDKRYNPALKSRLTISKDTSKNQVVLTMTNMDPVDTATYYCAQINPAWFAYWGQGTLVTVSS VL: DIVMTQSPDSLAVSLGERATINCKASQSVDFDGDSFMNWYQQKPGQPPKLLIYTTSNLESGVPDRFSGSGSGTDFTLTISSLQAEDVAVYYCQQSNEDPYTFGQGTKLEIK	binds
hu3G8VH-24/hu3G8VL-1 (antibody, V domains shown, Human Cγ1/Cκ constant regions; HEK-293) VH: QVTLRESGPALVKPTQTLTLTCTFSGFSLSTSGVGVGWIRQPPGKALEWLAHIWWDDDKRYSPSLKSRLTISKDTSKNQVVLTMTNMDPVDTATYYCAAINPAYFAYWGQGTLVTVSS VL: DIVMTQSPDSLAVSLGERATINCKASQSVDFDGDSFMNWYQQKPGQPPKLLIYTTSNLESGVPDRFSGSGSGTDFTLTISSLQAEDVAVYYCQQSNEDPYTFGQGTKLEIK	binds
hu3G8VH-12/hu3G8VL-1 (antibody, V domains shown, Human Cγ1/Cκ constant regions; HEK-293) VH: QVTLRESGPALVKPTQTLTLTCTFSGFSLSTSGMGVGWIRQPPGKALEWLAHIWWDDDKRYSPSLKSRLTISKDTSKNQVVLTMTNMDPVDTATYYCARINPAWFAYWGQGTLVTVSS VL: DIVMTQSPDSLAVSLGERATINCKASQSVDFDGDSFMNWYQQKPGQPPKLLIYTTSNLESGVPDRFSGSGSGTDFTLTISSLQAEDVAVYYCQQSNEDPYTFGQGTKLEIK	binds
hu3G8VH-25/hu3G8VL-1 (antibody, V domains shown, Human Cγ1/Cκ constant regions; HEK-293) VH: QVTLRESGPALVKPTQTLTLTCTFSGFSLSTSGVGVGWIRQPPGKALEWLAHIWWDDDKRYSPSLKSRLTISKDTSKNQVVLTMTNMDPVDTATYYCAHINPAYFAYWGQGTLVTVSS VL: DIVMTQSPDSLAVSLGERATINCKASQSVDFDGDSFMNWYQQKPGQPPKLLIYTTSNLESGVPDRFSGSGSGTDFTLTISSLQAEDVAVYYCQQSNEDPYTFGQGTKLEIK	binds
hu3G8VH-27/hu3G8VL-1 (antibody, V domains shown, Human Cγ1/Cκ constant regions; HEK-293) VH: QVTLRESGPALVKPTQTLTLTCTFSGFSLSTSGVGVGWIRQPPGKALEWLAHIWWDDDKRYSPSLKSRLTISKDTSKNQVVLTMTNMDPVDTATYYCAKINPAYFDYWGQGTLVTVSS VL: DIVMTQSPDSLAVSLGERATINCKASQSVDFDGDSFMNWYQQKPGQPPKLLIYTTSNLESGVPDRFSGSGSGTDFTLTISSLQAEDVAVYYCQQSNEDPYTFGQGTKLEIK	binds

Further lines, results first:

binding result	Binder
binds	hu3G8VH-18/hu3G8VL-1 (antibody, V domains shown, Human Cγ1/Cκ constant regions; HEK-293) VH: QVTLRESGPALVKPTQTLTLTCTFSGFSLSTSGMGVGWIRQPPGKALEWLAHIWWDDDKRYNPALKSRLTISKDTSKNQVVLTMTNMDPVDTATYYCAHINPAWFAYWGQGTLVTVSS VL: DIVMTQSPDSLAVSLGERATINCKASQSVDFDGDSFMNWYQQKPGQPPKLLIYTTSNLESGVPDRFSGSGSGTDFTLTISSLQAEDVAVYYCQQSNEDPYTFGQGTKLEIK
binds	hu3G8VH-29/hu3G8VL-1 (antibody, V domains shown, Human Cγ1/Cκ constant regions; HEK-293) VH: QVTLRESGPALVKPTQTLTLTCTFSGFSLSTSGVGVGWIRQPPGKALEWLAHIWWDDDKRYSPSLKSRLTISKDTSKNQVVLTMTNMDPVDTATYYCAHINPAYFDYWGQGTLVTVSS VL: DIVMTQSPDSLAVSLGERATINCKASQSVDFDGDSFMNWYQQKPGQPPKLLIYTTSNLESGVPDRFSGSGSGTDFTLTISSLQAEDVAVYYCQQSNEDPYTFGQGTKLEIK
binds	hu3G8VH-30/hu3G8VL-1 (antibody, V domains shown, Human Cγ1/Cκ constant regions; HEK-293) VH: QVTLRESGPALVKPTQTLTLTCTFSGFSLSTSGVGVGWIRQPPGKALEWLAHIWWDDDKRYSPSLKSRLTISKDTSKNQVVLTMTNMDPVDTATYYCAQINPAYFDYWGQGTLVTVSS VL: DIVMTQSPDSLAVSLGERATINCKASQSVDFDGDSFMNWYQQKPGQPPKLLIYTTSNLESGVPDRFSGSGSGTDFTLTISSLQAEDVAVYYCQQSNEDPYTFGQGTKLEIK
binds	hu3G8VH-23/hu3G8VL-1 (antibody, V domains shown, Human Cγ1/Cκ constant regions; HEK-293) VH: QVTLRESGPALVKPTQTLTLTCTFSGFSLSTSGVGVGWIRQPPGKALEWLAHIWWDDDKRYSPSLKSRLTISKDTSKNQVVLTMTNMDPVDTATYYCAKINPAYFAYWGQGTLVTVSS VL: DIVMTQSPDSLAVSLGERATINCKASQSVDFDGDSFMNWYQQKPGQPPKLLIYTTSNLESGVPDRFSGSGSGTDFTLTISSLQAEDVAVYYCQQSNEDPYTFGQGTKLEIK
binds	hu3G8VH-19/hu3G8VL-1 (antibody, V domains shown, Human Cγ1/Cκ constant regions; HEK-293) VH: QVTLRESGPALVKPTQTLTLTCTFSGFSLSTSGMGVGWIRQPPGKALEWLAHIWWDDDKRYNPALKSRLTISKDTSKNQVVLTMTNMDPVDTATYYCAQINPAYFAYWGQGTLVTVSS VL: DIVMTQSPDSLAVSLGERATINCKASQSVDFDGDSFMNWYQQKPGQPPKLLIYTTSNLESGVPDRFSGSGSGTDFTLTISSLQAEDVAVYYCQQSNEDPYTFGQGTKLEIK
binds	hu3G8VH-6/hu3G8VL-1 (antibody, V domains shown, Human Cγ1/Cκ constant regions; HEK-293) VH: QVTLRESGPALVKPTQTLTLTCTFSGFSLSTSGVGVGWIRQPPGKALEWLAHIWWDDDKRYNPALKSRLTISKDTSKNQVVLTMTNMDPVDTATYYCARINPAWFDYWGQGTLVTVSS VL: DIVMTQSPDSLAVSLGERATINCKASQSVDFDGDSFMNWYQQKPGQPPKLLIYTTSNLESGVPDRFSGSGSGTDFTLTISSLQAEDVAVYYCQQSNEDPYTFGQGTKLEIK
binds	hu3G8VH-28/hu3G8VL-1 (antibody, V domains shown, Human Cγ1/Cκ constant regions; HEK-293) VH: QVTLRESGPALVKPTQTLTLTCTFSGFSLSTSGVGVGWIRQPPGKALEWLAHIWWDDDKRYSPSLKSRLTISKDTSKNQVVLTMTNMDPVDTATYYCAAINPAYFDYWGQGTLVTVSS VL: DIVMTQSPDSLAVSLGERATINCKASQSVDFDGDSFMNWYQQKPGQPPKLLIYTTSNLESGVPDRFSGSGSGTDFTLTISSLQAEDVAVYYCQQSNEDPYTFGQGTKLEIK
binds	hu3G8VH-36/hu3G8VL-1 (antibody, V domains shown, Human Cγ1/Cκ constant regions; HEK-293) VH: QITLKESGPTLVKPTQTLTLTCTFSGFSLSTSGVGVGWIRQPPGKALEWLALIWWDDDKRYSPSLKSRLTISKDTSKNQVVLTMTNMDPVDTATYYCAQINPAYFDYWGQGTLVTVSS VL: DIVMTQSPDSLAVSLGERATINCKASQSVDFDGDSFMNWYQQKPGQPPKLLIYTTSNLESGVPDRFSGSGSGTDFTLTISSLQAEDVAVYYCQQSNEDPYTFGQGTKLEIK
binds	hu3G8VH-8/hu3G8VL-1 (antibody, V domains shown, Human Cγ1/Cκ constant regions; HEK-293) VH: QVTLRESGPALVKPTQTLTLTCTFSGFSLSTSGMGVGWIRQPPGKALEWLAHIWWDDDKRYNPALKSRLTISKDTSKNQVVLTMTNMDPVDTATYYCARINPAYFAYWGQGTLVTVSS VL: DIVMTQSPDSLAVSLGERATINCKASQSVDFDGDSFMNWYQQKPGQPPKLLIYTTSNLESGVPDRFSGSGSGTDFTLTISSLQAEDVAVYYCQQSNEDPYTFGQGTKLEIK
binds	hu3G8VH-17/hu3G8VL-1 (antibody, V domains shown, Human Cγ1/Cκ constant regions; HEK-293) VH: QVTLRESGPALVKPTQTLTLTCTFSGFSLSTSGMGVGWIRQPPGKALEWLAHIWWDDDKRYNPALKSRLTISKDTSKNQVVLTMTNMDPVDTATYYCAAINPAWFAYWGQGTLVTVSS VL: DIVMTQSPDSLAVSLGERATINCKASQSVDFDGDSFMNWYQQKPGQPPKLLIYTTSNLESGVPDRFSGSGSGTDFTLTISSLQAEDVAVYYCQQSNEDPYTFGQGTKLEIK
binds	hu3G8VH-16/hu3G8VL-1 (antibody, V domains shown, Human Cγ1/Cκ constant regions; HEK-293) VH: QVTLRESGPALVKPTQTLTLTCTFSGFSLSTSGMGVGWIRQPPGKALEWLAHIWWDDDKRYNPALKSRLTISKDTSKNQVVLTMTNMDPVDTATYYCAKINPAWFAYWGQGTLVTVSS VL: DIVMTQSPDSLAVSLGERATINCKASQSVDFDGDSFMNWYQQKPGQPPKLLIYTTSNLESGVPDRFSGSGSGTDFTLTISSLQAEDVAVYYCQQSNEDPYTFGQGTKLEIK
binds	hu3G8VH-14/hu3G8VL-1 (antibody, V domains shown, Human Cγ1/Cκ constant regions; HEK-293) VH: QVTLRESGPALVKPTQTLTLTCTFSGFSLSTSGMGVGWIRQPPGKALEWLAHIWWNDDKRYNPALKSRLTISKDTSKNQVVLTMTNMDPVDTATYYCARINPAWFAYWGQGTLVTVSS VL: DIVMTQSPDSLAVSLGERATINCKASQSVDFDGDSFMNWYQQKPGQPPKLLIYTTSNLESGVPDRFSGSGSGTDFTLTISSLQAEDVAVYYCQQSNEDPYTFGQGTKLEIK
